# ± gives the uncertainty stated by the source.
# B1: Peripheral plasma membrane protein CASK, residues 488 to 569; numbered along this chain, O14936 (parent)
# chain: VRLVQFQKNTDEPMGITLKMNELNHCIVARIMHGGMIHRQGTLHVGDEIREINGISVANQTVEQLQKMLREMRGSITFKIVP
# Variants of: B1
# Experiment: abundance fitness (aPCA) (normalised: wild type 0, dead -1); higher = more abundant; growth selection in yeast, the domain comes from the species named
# Conditions: Homo sapiens
row,Variant,abundance fitness
1,VRLVQFQKNTDEPMGITLKMNELNHCIVARIMHGGMIWRQGTLHVGDEIREINGISVANQTVEQLQKMLREMRGSITFKIVP [H38W],-0.029 ± 0.026
2,VRLVQFQKNTDEPMGITLKMNELNHCIVARIMHGGMIHRQGTLHVGDEIREINGISVANQTVEQLCKMLREMRGSITFKIVP [Q66C],-0.055 ± 0.032
3,VLLVQFQKNTDEPMGITLKMNELNHCIVARIMHGGMIHRQGTLHVGDEIREINGISVANQTVEQLQKMLREMRGSITFKIVP [R2L],-0.159 ± 0.036
4,VRLVQFQKNTDEPMGITLKMNELNHCILARIMHGGMIHRQGTLHVGDEIREINGISVANQTVEQLQKMLREMRGSITFKIVP [V28L],-0.424 ± 0.03
5,VRLVQFQKNTDEPMGITLKMNELNHCIGARIMHGGMIHRQGTLHVGDEIREINGISVANQTVEQLQKMLREMRGSITFKIVP [V28G],-0.992 ± 0.045
6,VRLVQFQKNTDEPMGITLKMNELNHCIVARIMHGGMIHRQGTLHVGDEIREINGISVANMTVEQLQKMLREMRGSITFKIVP [Q60M],-0.047 ± 0.031
7,VRLVQFQKNTDEPMGITLKMNERNHCIVARIMHGGMIHRQGTLHVGDEIREINGISVANQTVEQLQKMLREMRGSITFKIVP [L23R],0.046 ± 0.022
8,VRLVQFQKNTCEPMGITLKMNELNHCIVARIMHGGMIHRQGTLHVGDEIREINGISVANQTVEQLQKMLREMRGSITFKIVP [D11C],-0.136 ± 0.057
9,VRLVQFQKNTLEPMGITLKMNELNHCIVARIMHGGMIHRQGTLHVGDEIREINGISVANQTVEQLQKMLREMRGSITFKIVP [D11L],-0.092 ± 0.038
10,VRLVQFQKNTGEPMGITLKMNELNHCIVARIMHGGMIHRQGTLHVGDEIREINGISVANQTVEQLQKMLREMRGSITFKIVP [D11G],-0.034 ± 0.029
11,VRLVQFQKNHDEPMGITLKMNELNHCIVARIMHGGMIHRQGTLHVGDEIREINGISVANQTVEQLQKMLREMRGSITFKIVP [T10H],-0.064 ± 0.071
12,VRLVQFQKNTDEPMGITLKMNELNPCIVARIMHGGMIHRQGTLHVGDEIREINGISVANQTVEQLQKMLREMRGSITFKIVP [H25P],-0.819 ± 0.06
13,VRLVQFQKNTDEPMGITLKMNELNHCIVARIMHGGMIHRQGTLHVGDEIREINGISVANQTVEQLQKMLREMRGFITFKIVP [S75F],-0.037 ± 0.043
14,VRLVQFQKNTDEPMGITLKMNELNHCIVARIMHGGMIHRQGTLTVGDEIREINGISVANQTVEQLQKMLREMRGSITFKIVP [H44T],-0.039 ± 0.029
15,VRLVQFQKNTDEPMGITLKMNELNHCIVARIMHGGMIHRQGTLPVGDEIREINGISVANQTVEQLQKMLREMRGSITFKIVP [H44P],-0.917 ± 0.063
16,VRLVQFQKNTDEPMGITLKMNELNHCIVARIMHGGMIHRQGTLHVGDEIREINGISVANQTVEQLQKMLREMRGSGTFKIVP [I76G],-0.157 ± 0.023
17,VRLVQFQKNTDEPMGITLKMNELNHCIVARIMHGGMIHRQGTLHVGDEIREINGIQVANQTVEQLQKMLREMRGSITFKIVP [S56Q],-0.06 ± 0.029
18,VRLVQFQKNTDENMGITLKMNELNHCIVARIMHGGMIHRQGTLHVGDEIREINGISVANQTVEQLQKMLREMRGSITFKIVP [P13N],-0.021 ± 0.042
19,VRLVQFQKNTDEPMGITLKMNELNHCIVARIMHGGMIHRQGTLHVGDEIREINHISVANQTVEQLQKMLREMRGSITFKIVP [G54H],-0.076 ± 0.11
20,VRLVQFQKNTDEPMGITLKMNELNHCIVARIMHGGMIHRQGTLHVGDEIREINGISVANQTVEQLQKMLREMRGSITFVIVP [K79V],-0.213 ± 0.048
21,NRLVQFQKNTDEPMGITLKMNELNHCIVARIMHGGMIHRQGTLHVGDEIREINGISVANQTVEQLQKMLREMRGSITFKIVP [V1N],0.037 ± 0.048
22,VRLVQFQKNTDEPMGITLKMNELNHCIVARIMHGGMIHRQGTLHVGDEIREINGISVANQTVEQLQFMLREMRGSITFKIVP [K67F],-0.023 ± 0.052
23,VRLVQFQKNTDEPMGITLKMNELNHCIVARIMHGGMIHRQGTLHVGDEIREINGISVANQTVEQLQKMLREMPGSITFKIVP [R73P],-0.357 ± 0.041

row,Variant,abundance fitness
1,VRLVQFQKNTDEPMGITLKMNELNHCIVARIMHGGMIHRQGTLHVGDEIREINGISVANQTVEQLQKMLREMWGSITFKIVP [R73W],-0.117 ± 0.027
2,VRLVQFQKNTDEPMGITLKMNELNHCIVARIMHGGMIHRQGTSHVGDEIREINGISVANQTVEQLQKMLREMRGSITFKIVP [L43S],-0.755 ± 0.051
3,VRLVQFQKNTDEPMGITLKMNELNHCIVARIMHGGMIHRQGTLHVGAEIREINGISVANQTVEQLQKMLREMRGSITFKIVP [D47A],-0.708 ± 0.085
4,VRLVQFQKNTDEPMGITLKMNELNHCIVARIMHGGEIHRQGTLHVGDEIREINGISVANQTVEQLQKMLREMRGSITFKIVP [M36E],0.009 ± 0.042
5,VRLVQFQKNTDEPMGITLKMNELNHCIVARIMHGGLIHRQGTLHVGDEIREINGISVANQTVEQLQKMLREMRGSITFKIVP [M36L],0.025 ± 0.037
6,VRLVQFQKNTDEPMGITLKMNELNHCIVARIMHGGMIHRQGTLHVGDEIREINGISVANQTVEQLQKMLREMRGSITFKWVP [I80W],-0.383 ± 0.081
7,VRLVQFQKNTDEPMGITLKMNELNHCIVARIMHGGMIHRQGTLHVGDEIREINGISVANQTVEQLQKMLREMRGSITFKIFP [V81F],-0.02 ± 0.038
8,VRLVQFQKNTDEPMGITLKMNELNHCIVARIMHGGMIHRQGTLHVGDEIREINGISVANQTVEQLQKMLREGRGSITFKIVP [M72G],-0.077 ± 0.02
9,VRLVQFQKNTDEPMGITLKMNELNHCIVARIMHGGMIHRQGTLHVGDEIREINGISVANQTVEQLQKMLREHRGSITFKIVP [M72H],-0.009 ± 0.046
10,VRLVQFQKNTDEPMGITLKMNELNHCIVARIMHGGMIHRQGTLHVGDEIREINGISVANQTVEQLQKMLREQRGSITFKIVP [M72Q],-0.05 ± 0.03
11,VRLVQFQKNTDEPMGITLKMNELNHCIVARIMHGGMIHRCGTLHVGDEIREINGISVANQTVEQLQKMLREMRGSITFKIVP [Q40C],-0.072 ± 0.029
12,VRLVQFQKNTDEPMGITLKMNELNHCIVARIMHGGMIHRAGTLHVGDEIREINGISVANQTVEQLQKMLREMRGSITFKIVP [Q40A],-0.016 ± 0.02
13,VRLVQFQKNTDEPMGITLKMNELNHCIVARIMHGGMIHRQGTLHVGDEIREINGISVANQTVEQLQKMIREMRGSITFKIVP [L69I],-0.08 ± 0.055
14,VRLVQFQKNTDEPMGITLKMNELNHCIVARIMHGGMIHRQGTLHVGDEIREINGISVANQTVEQLQKMYREMRGSITFKIVP [L69Y],-0.357 ± 0.06
15,VRLVQFQKNTDEPMGIQLKMNELNHCIVARIMHGGMIHRQGTLHVGDEIREINGISVANQTVEQLQKMLREMRGSITFKIVP [T17Q],-0.001 ± 0.029
16,VRLVQFQKNTDEPMGIELKMNELNHCIVARIMHGGMIHRQGTLHVGDEIREINGISVANQTVEQLQKMLREMRGSITFKIVP [T17E],-0.019 ± 0.028
17,VRLVQFQLNTDEPMGITLKMNELNHCIVARIMHGGMIHRQGTLHVGDEIREINGISVANQTVEQLQKMLREMRGSITFKIVP [K8L],-0.028 ± 0.024
18,VRLVQFQKNTDEPMGITRKMNELNHCIVARIMHGGMIHRQGTLHVGDEIREINGISVANQTVEQLQKMLREMRGSITFKIVP [L18R],-0.986 ± 0.07
19,VRLVQFQKNTDEPMGITLKMNCLNHCIVARIMHGGMIHRQGTLHVGDEIREINGISVANQTVEQLQKMLREMRGSITFKIVP [E22C],-0.089 ± 0.045
20,VRNVQFQKNTDEPMGITLKMNELNHCIVARIMHGGMIHRQGTLHVGDEIREINGISVANQTVEQLQKMLREMRGSITFKIVP [L3N],-0.13 ± 0.053
21,VRLVQFQKNTDEPMGITLKMNELNHCIVARIMHGGMIHRQGLLHVGDEIREINGISVANQTVEQLQKMLREMRGSITFKIVP [T42L],-0.003 ± 0.024
22,VRLVQFQKNTDEPMGITLKMNELNHCIVARIMHGGMIHRQGSLHVGDEIREINGISVANQTVEQLQKMLREMRGSITFKIVP [T42S],0.005 ± 0.024
23,VRLVQFQKNTDEPMGITLKMNELNHCIVARIMHGGMIHRQGTLHVGDEIREINGISVANQTVEQLQKMLREMRGSITFKIVA [P82A],-0.016 ± 0.046

row,Variant,abundance fitness
1,VRLVQFQKNTDEPMGITLKMNELNHCIVARIMHGGMIHRQGTLHVGDEIREINGISVANQTVEQLQKMLREMRGSITFKIVD [P82D],-0.039 ± 0.07
2,VRLVQFQKNTDEPMGITLKMNELNHQIVARIMHGGMIHRQGTLHVGDEIREINGISVANQTVEQLQKMLREMRGSITFKIVP [C26Q],-0.708 ± 0.059
3,VRLVQFQKNTDEPMGITLKMNELNHCIVCRIMHGGMIHRQGTLHVGDEIREINGISVANQTVEQLQKMLREMRGSITFKIVP [A29C],-0.279 ± 0.064
4,VRLVQFQKNTDEPMGITLKMNELNHCIVARIMHGGMIHRQGTLHVGDEIREINGISVANQTREQLQKMLREMRGSITFKIVP [V62R],-0.1 ± 0.02
5,VRLVQFQKNTDEPMGITLKMNELNHCIVARIMHGGMSHRQGTLHVGDEIREINGISVANQTVEQLQKMLREMRGSITFKIVP [I37S],-0.217 ± 0.028
6,VRLVQFQKNTDEPMGITLKMNELNHCIVARVMHGGMIHRQGTLHVGDEIREINGISVANQTVEQLQKMLREMRGSITFKIVP [I31V],-0.057 ± 0.03
7,VRLVQFQKNTDEPMGITLKMNELNHCIVARIMHGGMIHRQGTLHVGDEIREINGISVGNQTVEQLQKMLREMRGSITFKIVP [A58G],-0.01 ± 0.021
8,VRLVQFQKNTDEPMGITLKMNELNHCIVARIMHGGMIHRQGTLHVVDEIREINGISVANQTVEQLQKMLREMRGSITFKIVP [G46V],-1.04 ± 0.092
9,VRLVQFQKNTDEPMGITLKMNELNHCIVARIMHGGMIHRQGTLHVGDEIREINGQSVANQTVEQLQKMLREMRGSITFKIVP [I55Q],0.035 ± 0.028
10,VRLVQFQKNTDEPMGITLKMNELNHCIVARIMHGGMIHRQGTLHVGDEIREINGPSVANQTVEQLQKMLREMRGSITFKIVP [I55P],-1.05 ± 0.089
11,VRLVQFQKNTDEPMRITLKMNELNHCIVARIMHGGMIHRQGTLHVGDEIREINGISVANQTVEQLQKMLREMRGSITFKIVP [G15R],-0.467 ± 0.037
12,VRLVQFQKNTDEPMDITLKMNELNHCIVARIMHGGMIHRQGTLHVGDEIREINGISVANQTVEQLQKMLREMRGSITFKIVP [G15D],-0.276 ± 0.037
13,VRLVQFQKNTDEPMGITLKMNELNHCIVARIMWGGMIHRQGTLHVGDEIREINGISVANQTVEQLQKMLREMRGSITFKIVP [H33W],-0.16 ± 0.034
14,VRLVQFQKNTDEPMGITLKMNELNHCIVARIMKGGMIHRQGTLHVGDEIREINGISVANQTVEQLQKMLREMRGSITFKIVP [H33K],0.01 ± 0.04
15,VRLVQFQKNTDEPMGITLKMNELNHCIVARIMVGGMIHRQGTLHVGDEIREINGISVANQTVEQLQKMLREMRGSITFKIVP [H33V],0.003 ± 0.028
16,VRLVQFQKSTDEPMGITLKMNELNHCIVARIMHGGMIHRQGTLHVGDEIREINGISVANQTVEQLQKMLREMRGSITFKIVP [N9S],-0.009 ± 0.025
17,VRLVQFQKDTDEPMGITLKMNELNHCIVARIMHGGMIHRQGTLHVGDEIREINGISVANQTVEQLQKMLREMRGSITFKIVP [N9D],0.024 ± 0.033
18,VRLVQFQKATDEPMGITLKMNELNHCIVARIMHGGMIHRQGTLHVGDEIREINGISVANQTVEQLQKMLREMRGSITFKIVP [N9A],-0.003 ± 0.025
19,VRLVQFQKNTDEPMGITLKMVELNHCIVARIMHGGMIHRQGTLHVGDEIREINGISVANQTVEQLQKMLREMRGSITFKIVP [N21V],-0.145 ± 0.028
20,VRLVQFQKNTDEPMGITLKMNELNHCIVARIMHGGMIHRQGTLHVGDEIREINGISVANQTVEQLQKMLREMRGSINFKIVP [T77N],-0.096 ± 0.065
21,VRLVQFQKNTDEPMGITLKMNELNHCIVARIMHGGMIHRQGTLHVGDEIREINGISVANQTVEQLQKMLREMRGSILFKIVP [T77L],-0.064 ± 0.035
